Measurements published in patent US20220259593A1, “CONTROL OF MAMMALIAN GENE DOSAGE USING CRISPR” (The Regents of the University of California, priority 2019, published 2022).

B1: cr227 (nucleic acid)
guide: GTTTAAGAGCTAAGCTGGAAACAGCATAGCAAGTTTAAATAAGGCTAGTCCGCTAACCACTTGAAAAAGTGGCACCGAGTCGGTGCT
modifications: listed as DNA, chemistry not fully specified
B2: cr639 (nucleic acid)
guide: GTTTAAGAGCTAAGCTGGAAACAGCATAGCAAGTTTAAATAAGGATATTCCGTTATCAACTTGAAAAAGTGGCACCGAGTCGGTGCT
modifications: listed as DNA, chemistry not fully specified
B3: cr451 (nucleic acid)
guide: GTTTAAGAGCTAAGCTGGAAACAGCATAGCAAGTTTAAATAAGGATATTCCGTTATCAACTTGAAAAAGTGGCTCCGAGTCGGAGCT
modifications: listed as DNA, chemistry not fully specified
B4: cr212 (nucleic acid)
guide: GTTTAAGAGCTAAGCTGGAAACAGCATAGCAAATTTAAATAAGGCTAGTCCGTTATCAACTTGAAGAAGTGGCACCGAGTCGGTGCT
modifications: listed as DNA, chemistry not fully specified
B5: cr631 (nucleic acid)
guide: GTTTAAGAGCTAAGCTGGAAACAGCATAGCAAGTTTAAATAAGGATATTCCGTTATCAACATGAAAATGTGGCAACGAGTCGTTGCT
modifications: listed as DNA, chemistry not fully specified
B6: cr479 (nucleic acid)
guide: GTTTAAGAGCTAAGCTGGAAACAGCATAGCAAGTTTAAATAAGGCTAGTCCGTTATCAAGTTGAAAAACTGGGACCCAGTGGGTCCT
modifications: listed as DNA, chemistry not fully specified
B7: cr602 (nucleic acid)
guide: GTTTAAGAGCTAAGCTGGAAACAGCATAGCAAGTTTAAATAAGGCTAGTCCGTTATCAACTTGAAAAAGTGGCGCCGAGTCGGCGCT
modifications: listed as DNA, chemistry not fully specified
B8: cr915 (nucleic acid)
guide: GTTTAAGAGCTAAGCTGGAAACAGCATAGCAAGTTTAAATAAGGCTAGTCCGTTATCAACTTGAAAAAGTGGCACCCAGTGGGTGCT
modifications: listed as DNA, chemistry not fully specified
B9: cr458 (nucleic acid)
guide: GTTTAAGAGCTAAGCTGGAAACAGCATAGCAAGTTTAAATAAGGCTAGTCCGTTATCAACTTGAGAAAGTCGCACCGAGTCGGTGCT
modifications: listed as DNA, chemistry not fully specified
B10: cr008 (nucleic acid)
guide: GTCTAAGAGCTAAGCTGGAAACAGCATAGCAAGTTTAAATAAGGCTAGTCCGTTATCAACTTGAAAAAGTGGCACCGAGTCGGTGCT
modifications: listed as DNA, chemistry not fully specified
B11: cr481 (nucleic acid)
guide: GTTTAAGAGCTAAGCTGGAAACAGCATAGCAAGTTTAAATAAGGGTACTCCGTTATCAACTTGAAAAAGTGACACCGAGTCGGTGTT
modifications: listed as DNA, chemistry not fully specified
B12: cr598 (nucleic acid)
guide: GTTTAAGAGCTAAGCTGGAAACAGCATAGCAAGCTTAAATAAGGCTAGTCCGTTATCAACTGGAAACAGTGGCACCGAGTCGGTGCT
modifications: listed as DNA, chemistry not fully specified
B13: cr927 (nucleic acid)
guide: GTTTAAGAGCTAAGCTGGAAACAGCATAGCAAGTTTAAATAAGGCTAGTCCGTTATCAACTTGAAAAAGTGGCGCCCAGTGGGCGCT
modifications: listed as DNA, chemistry not fully specified
B14: cr300 (nucleic acid)
guide: GTTTAAGAGCTAAGCTGGAAACAGCATAGCAAGTTTAAATAAGGATATTCCGTTATCAACTTGAAAAAGTGATACCGAGTCGGTATT
modifications: listed as DNA, chemistry not fully specified
B15: cr282 (nucleic acid)
guide: GTTTAAGAGCTAAGCTGGAAACAGCATAGCAAGTTTAAATAAGGCTAGTCCGTTATCAACTTGAAAAAGTGCACCCGAGTCGGGTGT
modifications: listed as DNA, chemistry not fully specified
B16: cr726 (nucleic acid)
guide: GTTTAAGAGCTAAGCTGGAAACAGCATAGCATGTTTAAATAAGGCTAGTCCATTCTCAACTTGAAAAAGTGGCACCGAGTCGGTGCT
modifications: listed as DNA, chemistry not fully specified
B17: cr440 (nucleic acid)
guide: GTTTAAGAGCTAAGCTGGAAACAGCATAGCAAGTTTAAATAAGGCTAGTCCGTTATCAACTTGAAAAACTGGCACCGAGTCGGTGCT
modifications: listed as DNA, chemistry not fully specified
B18: cr338 (nucleic acid)
guide: GTTTAAGAGCTAAGCTGGAAACAGCATAGCAAGTCTAAATAAGGCGAGTCCGTTATCAACTTGAAAAAGTGGCACCGAGTCGGTGCT
modifications: listed as DNA, chemistry not fully specified
B19: cr456 (nucleic acid)
guide: GTTTAAGAGCTAAGCTGGAAACAGCATAGCAAATTTAAATAAGGCAAGTCCGTTATCAACTTGAAAAAGTGGCACCGAGTCGGTGCT
modifications: listed as DNA, chemistry not fully specified
B20: cr827 (nucleic acid)
guide: GTTTAAGAGCTAAGCTGGAAACAGCATAGCAAGTTTAAATAAGGATATTCCGTTATCAACTTGAAAAAGTGGCTACGAGTCGTAGCT
modifications: listed as DNA, chemistry not fully specified
B21: cr803 (nucleic acid)
guide: GTTTAAGAGCTAAGCTGGAAACAGCATAGCAAGTTTAAATAAGGATATTCCGTTATCAACTTGAGAAAGTGGCACCGAGTCGGTGCT
modifications: listed as DNA, chemistry not fully specified
B22: cr491 (nucleic acid)
guide: GTTTAAGAGCTAAGCTGGAAACAGCATAGCAAGTTTAAATAAGGATATTCCGTTATCAAGTTGAAAAACTGGCACCGAGTCGGTGCT
modifications: listed as DNA, chemistry not fully specified
B23: cr330 (nucleic acid)
guide: GTTTAAGAGCTAAGCTGGAAACAGCATAGCAAGTTTAAATAAGGATATTCCGTTATCAACTTGAAAAAGTGCCACCGAGTCGGTGGT
modifications: listed as DNA, chemistry not fully specified
B24: cr500 (nucleic acid)
guide: GTTTAAGAGCTAAGCTGGAAACAGCATAGCAAGTTTAAATAAGGCTAGTCCGTTATCAACTTGAAAAAGTGGCACCGAGGCGGTGCT
modifications: listed as DNA, chemistry not fully specified
B25: cr134 (nucleic acid)
guide: GTTTAAGAGCTAAGCTGGAAACAGCATAGCAAGTTTAAATAAGGCTAGTCCGTTATTAACTTGAACAAGTGGCACCGAGTCGGTGCT
modifications: listed as DNA, chemistry not fully specified
B26: cr223 (nucleic acid)
guide: GTTTAAGAGCTAAGCTGGAAACAGCATAGCAAGTTTAAATAAGGGTACTCCGTTATCAACTTGAAAAAGTGGCACCGAGTCGGTGCT
modifications: listed as DNA, chemistry not fully specified
B27: cr651 (nucleic acid)
guide: GTTTAAGAGCTAAGCTGGAAACAGCATAGCAAGTTTAAATAAGGCTAGTCCGTTTGCAACTTGAAAAAGTAGCACCGAGTCGGTGCT
modifications: listed as DNA, chemistry not fully specified
B28: cr989 (nucleic acid)
guide: GTTTAAGAGCTAAGCTGGAAACAGCATAGCAAGTTTAAATAAGGCTAGTCCGTTATCAACTTGAAAAAATGGCACCGAGTCGGTGCT
modifications: listed as DNA, chemistry not fully specified
B29: cr976 (nucleic acid)
guide: GTTTAAGAGCTAAGCTGGAAACAGCATAGCAAGTTTAAATAAGGGTACTCCGTTATCAACTTGAGAAAGTGGCACCGAGTCGGTGCT
modifications: listed as DNA, chemistry not fully specified
B30: cr957 (nucleic acid)
guide: GTTTAAGAGCTAAGCTGGAAACAGCATAGCAAGTTTAAATAAGGGTACTCCGTTATCAACTTGAAAAAGTGCCACCGAGTCGGTGGT
modifications: listed as DNA, chemistry not fully specified
B31: cr533 (nucleic acid)
guide: GTTTAAGAGCTAAGCTGGAAACAGCATAGCAAGTTTAAATAAGGCTAGTCCGTTATCAGCTTGAAAAAGCGGCGGCGAGTCGCCGCT
modifications: listed as DNA, chemistry not fully specified

System: K562 CRISPRi cells
Experiment: Constant region variant library pooled growth screen, K562
Format: cell-based, human
Conditions: sgRNA constant region variants; activity relative to the original, un-modified constant region cr995
Method in brief: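 Cells were selected with puromycin for 2 days and then kept in RPMI-1640 spinner cultures, with duplicates handled separately. Targeting sequences comprised 3 sgRNAs per essential gene for 10 genes plus six non-targeting controls. Activities were normalized against pairing with the unmodified scaffold.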

Molecule	Mean relative activity
B1	0.6062
B2	0.6057
B3	0.6053
B4	0.6035
B5	0.6014
B6	0.5994
B7	1.049
B8	0.5965
B9	0.5958
B10	0.5955
B11	0.5936
B12	0.5934
B13	0.5921
B14	0.592
B15	1.049
B16	0.5903

Molecule	Mean relative activity
B17	0.5863
B18	0.5831
B19	0.5821
B20	0.5792
B21	0.578
B22	0.5775
B23	0.5762
B24	0.5743
B25	0.5692
B26	0.5667
B27	0.5637
B28	0.5623
B29	0.5594
B30	0.5576
B31	0.5558
